Laboratory results: patent publication US12692291 (PALATIN TECHNOLOGIES, dated 2026)
Like-named read-outs stand apart in the source and are kept apart here. Bridges are numbered along the chain shown (N, C = ends). [ ]: non-standard residue; d: D form. dPhe(4-F) = N[C@H](Cc1ccc(F)cc1)C(=O)O; Nle = CCCC[C@H](N)C(=O)O

How the values were obtained:
Experiment in all cases: cell-based or functional assay
[1] = target: T1, melanocortin receptor-3 (MC3r), recombinant on HEK-293 cells
[2] = target: T2, melanocortin receptor-4 (MC4r), recombinant on HEK-293 cells (human, UniProt P32245 1-332)
[3] = target: T3, melanocortin receptor-1 (MC1r), native on the mouse B16-F10 cell line (mouse, UniProt Q01727 1-315)
[4] = target: melanocortin receptor-5 (MC5r), assay other than CEREP
[5] = target: T4, human melanocortin receptor-5 (MC5), on CHO-K1 cells, CEREP assay 1869 (human, UniProt P33032 1-325)
[6] = target: T5, melanocortin receptor-1 (MC1r), native on the human HBL cell line (human, UniProt Q01726 1-317)
[7] = target: T1, melanocortin receptor-3 (MC3r), …; remark: listed apart in the source
[8] = target: T2, melanocortin receptor-4 (MC4r), …; remark: listed apart in the source
[9] = target: T3, melanocortin receptor-1 (MC1r), native …; remark: listed apart in the source
[10] = target: melanocortin receptor-5 (MC5r), assay other than CEREP; remark: listed apart in the source
[11] = target: T4, human melanocortin receptor-5 (MC5), on …; remark: listed apart in the source
[12] = target: T5, melanocortin receptor-1 (MC1r), native …; remark: listed apart in the source

T5 sequence (Q01726 whole entry): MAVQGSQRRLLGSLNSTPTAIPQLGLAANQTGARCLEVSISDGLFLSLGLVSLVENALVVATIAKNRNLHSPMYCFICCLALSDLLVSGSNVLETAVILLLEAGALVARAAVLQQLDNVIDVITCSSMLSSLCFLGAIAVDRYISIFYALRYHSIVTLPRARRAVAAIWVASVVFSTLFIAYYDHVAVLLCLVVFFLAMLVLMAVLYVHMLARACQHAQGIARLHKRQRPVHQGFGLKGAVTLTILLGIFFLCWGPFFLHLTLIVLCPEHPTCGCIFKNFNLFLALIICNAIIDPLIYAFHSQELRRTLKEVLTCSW
T1 sequence (P41968 whole entry): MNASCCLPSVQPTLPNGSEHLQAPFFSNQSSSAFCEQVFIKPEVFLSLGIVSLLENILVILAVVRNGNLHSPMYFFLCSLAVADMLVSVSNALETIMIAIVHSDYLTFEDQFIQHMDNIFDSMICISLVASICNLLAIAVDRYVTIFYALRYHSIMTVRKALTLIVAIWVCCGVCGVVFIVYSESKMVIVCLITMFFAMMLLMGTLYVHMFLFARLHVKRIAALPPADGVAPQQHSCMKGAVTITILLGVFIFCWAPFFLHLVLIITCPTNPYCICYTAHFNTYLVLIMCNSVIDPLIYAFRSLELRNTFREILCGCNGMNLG
T2 sequence (P32245 whole entry): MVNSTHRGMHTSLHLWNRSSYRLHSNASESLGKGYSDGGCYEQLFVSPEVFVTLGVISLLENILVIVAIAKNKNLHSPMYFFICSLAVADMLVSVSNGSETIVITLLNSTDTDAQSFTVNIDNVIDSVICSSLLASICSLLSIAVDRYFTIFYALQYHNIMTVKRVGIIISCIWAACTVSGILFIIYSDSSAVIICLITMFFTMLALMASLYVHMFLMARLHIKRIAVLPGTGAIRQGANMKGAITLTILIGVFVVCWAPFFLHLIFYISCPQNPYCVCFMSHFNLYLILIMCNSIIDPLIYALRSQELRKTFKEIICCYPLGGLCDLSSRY
T4 sequence (P33032 whole entry): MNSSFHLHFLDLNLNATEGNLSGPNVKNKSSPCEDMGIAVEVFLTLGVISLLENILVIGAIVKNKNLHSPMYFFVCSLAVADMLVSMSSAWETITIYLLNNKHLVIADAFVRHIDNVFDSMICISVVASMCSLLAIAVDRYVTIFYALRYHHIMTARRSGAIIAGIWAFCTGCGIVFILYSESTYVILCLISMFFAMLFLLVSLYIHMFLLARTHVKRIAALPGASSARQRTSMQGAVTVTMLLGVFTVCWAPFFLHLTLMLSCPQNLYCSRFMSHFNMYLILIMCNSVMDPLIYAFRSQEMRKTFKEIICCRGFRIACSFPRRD
melanocortin receptor-5 (MC5r), assay other than CEREP, sequence (P33032 whole entry): as above
T3 sequence (Q01727 whole entry): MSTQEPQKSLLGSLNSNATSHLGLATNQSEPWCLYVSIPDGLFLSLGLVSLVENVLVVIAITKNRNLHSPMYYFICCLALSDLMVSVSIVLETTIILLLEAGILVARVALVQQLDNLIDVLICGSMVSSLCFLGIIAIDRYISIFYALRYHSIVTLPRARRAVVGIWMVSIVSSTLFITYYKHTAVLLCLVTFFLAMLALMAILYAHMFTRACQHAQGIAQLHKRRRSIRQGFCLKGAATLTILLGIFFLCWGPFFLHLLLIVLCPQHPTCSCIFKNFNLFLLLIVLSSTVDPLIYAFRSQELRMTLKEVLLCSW

B1: Peptide No. 60, Ac-Nle-cyclo(Glu-His-D-Phe(4-F)-Arg-Trp-NH-(CH2)4-NH) (peptide)
peptide: Ac-[Nle]EH[dPhe(4-F)]RW
modifications: bridge 2-C; not fully specified (C-terminus, bridges); printed as Ac-Nle-cyclo(Glu-His-D-Phe(4-F)-Arg-Trp-NH-(CH2)4-NH)
EC50 (nM), cAMP accumulation [1]: 0.77 nM
Fold Peptide No. 60 More Potent Than Bremelanotide (ratio of EC50 values) [1]: 4 fold
EC50 (nM), cAMP accumulation [2]: 2 nM
Fold Peptide No. 60 More Potent Than Bremelanotide (ratio of EC50 values) [2]: 0.5 fold
EC50 (nM), cAMP accumulation [3]: 0.02 nM
Fold Peptide No. 60 More Potent Than Bremelanotide (ratio of EC50 values) [3]: 5 fold
EC50 [4]: 150 pM
Fold Peptide No. 60 More Potent Than Bremelanotide (ratio of EC50 values) [4]: 22500 fold
EC50 (nM), cAMP production, HTRF, CEREP [5]: 0.39 nM
Fold Peptide No. 60 More Potent Than Bremelanotide (ratio of EC50 values, CEREP) [5]: > 25000 fold
EC50 (nM), cAMP accumulation [6]: 0.13 nM
Fold Peptide No. 60 More Potent Than Bremelanotide (ratio of EC50 values) [6]: 0.78 fold
EC50 (nM), cAMP accumulation [7]: 0.77 nM
Fold Peptide No. 60 More Potent Than α-MSH (ratio of EC50 values) [7]: 3.9 fold
EC50 (nM), cAMP accumulation [8]: 2 nM
Fold Peptide No. 60 More Potent Than α-MSH (ratio of EC50 values) [8]: 1.5 fold
EC50 (nM), cAMP accumulation [9]: 0.02 nM
Fold Peptide No. 60 More Potent Than α-MSH (ratio of EC50 values) [9]: 11 fold
EC50 [10]: 150 pM
Fold Peptide No. 60 More Potent Than α-MSH (ratio of EC50 values) [10]: 686 fold
EC50 (nM), cAMP production, HTRF, CEREP [11]: 0.39 nM
Fold Peptide No. 60 More Potent Than α-MSH (ratio of EC50 values, CEREP) [11]: 930 fold
EC50 (nM), cAMP accumulation [12]: 0.13 nM
Fold Peptide No. 60 More Potent Than α-MSH (ratio of EC50 values) [12]: 69 fold
